Source: the RNAGym collection of RNA variant scans (doi:10.1073/pnas.2313332121)

B1: TPR t1 (parent)
chain: GACCAAUCUGCCCUCAGAGCUCGAGAACAUCUUCGGAUGCAGAGGAGGCAGGCUUCGGUGGCGCGAUAGCGCCAACGUCCUCAACCUCCAAUGCAUCCCACCACAUGAUGAUGCCUGAAGAGCCUUGGUUUUUUG

Variants of: B1
Experiment: polymerase ribozyme fitness, log enrichment relative to wild type (log ratio); higher = more active; in vitro selection for triplet polymerase activity
Procedure, shortened: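 To select mutant libraries of each subunit of a heterodimeric triplet polymerase ribozyme, built by PCR and transcribed, each was annealed with a biotinylated primer, partner subunit and triplets, then incubated frozen at −7 °C. Extended constructs were gel-excised, captured on streptavidin beads and amplified by RT-PCR, in one round carried out in triplicate. Illumina sequencing of input and output libraries kept genotypes with ≥10 input reads and ≥1 read per output. Fitness is the base-2 logarithm of genotype enrichment relative to wild-type enrichment, from inverse-variance-weighted replicate averages.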

**Q.** For G63C U87C, which “polymerase ribozyme fitness (log ratio)” value is on record?
**A.** The value was -0.645.

**Q.** With A27C G60C C73G as the variant, how does the “polymerase ribozyme fitness (log ratio)” value read?
**A.** The value was -2.55.

**Q.** With U9C C49A C53U C88U U133A as the variant, how does the “polymerase ribozyme fitness (log ratio)” value read?
**A.** Its value is -0.445.

**Q.** With C31G C34U U109G G110C as the variant, how does the “polymerase ribozyme fitness (log ratio)” value read?
**A.** Its value is -6.14.

**Q.** Which “polymerase ribozyme fitness (log ratio)” value does the source give for C70G A105G here?
**A.** Its value is -5.16.

**Q.** Which “polymerase ribozyme fitness (log ratio)” value does the source give for C11U G69A A84C here?
**A.** Its value is -2.03.

**Q.** For G47A G60A C124G, which “polymerase ribozyme fitness (log ratio)” value is on record?
**A.** Its value is 0.279.

**Q.** For C72U U109G G113A, which “polymerase ribozyme fitness (log ratio)” value is on record?
**A.** Its value is -5.96.

**Q.** With A29G G77A U78A C123A as the variant, how does the “polymerase ribozyme fitness (log ratio)” value read?
**A.** The value was -2.27.

**Q.** Which “polymerase ribozyme fitness (log ratio)” value does the source give for A18U C56U here?
**A.** Its value is -1.72.

**Q.** With G42C A43U C86U U96C as the variant, how does the “polymerase ribozyme fitness (log ratio)” value read?
**A.** Its value is -2.55.

**Q.** Which “polymerase ribozyme fitness (log ratio)” value does the source give for C40A A50U here?
**A.** Its value is -1.94.

**Q.** Which “polymerase ribozyme fitness (log ratio)” value does the source give for A41U C53U G120U here?
**A.** The value was -1.89.

**Q.** For G36A G63A U78C, which “polymerase ribozyme fitness (log ratio)” value is on record?
**A.** The value was -1.53.

**Q.** With U96G C123G as the variant, how does the “polymerase ribozyme fitness (log ratio)” value read?
**A.** The value was 1.1.

**Q.** For C31G G122A, which “polymerase ribozyme fitness (log ratio)” value is on record?
**A.** The value was -5.66.

**Q.** With G35A G120C C124A as the variant, how does the “polymerase ribozyme fitness (log ratio)” value read?
**A.** Its value is -3.97.

**Q.** Which “polymerase ribozyme fitness (log ratio)” value does the source give for G58C U109A C114U here?
**A.** The value was -5.23.

**Q.** For G69C A91U, which “polymerase ribozyme fitness (log ratio)” value is on record?
**A.** The value was -3.08.

**Q.** With G48C G63A as the variant, how does the “polymerase ribozyme fitness (log ratio)” value read?
**A.** Its value is -0.954.

**Q.** With A37U G77A A90U C123U as the variant, how does the “polymerase ribozyme fitness (log ratio)” value read?
**A.** The value was -0.717.

**Q.** With A2C C11U as the variant, how does the “polymerase ribozyme fitness (log ratio)” value read?
**A.** The value was -2.65.

**Q.** For G10A C22U, which “polymerase ribozyme fitness (log ratio)” value is on record?
**A.** Its value is -4.59.

**Q.** For C70G U112G U125C, which “polymerase ribozyme fitness (log ratio)” value is on record?
**A.** The value was -3.92.

**Q.** With G10A C12U U14C C56G G63C G117U U129A as the variant, how does the “polymerase ribozyme fitness (log ratio)” value read?
**A.** The value was -3.92.

**Q.** For U9G C11U A27G G47C U78C C86U, which “polymerase ribozyme fitness (log ratio)” value is on record?
**A.** Its value is -2.22.

**Q.** For C3G C4G C53U G60U G93A, which “polymerase ribozyme fitness (log ratio)” value is on record?
**A.** Its value is -3.06.

**Q.** With C80A C97A G107U C115U as the variant, how does the “polymerase ribozyme fitness (log ratio)” value read?
**A.** The value was -7.92.

**Q.** For G48C C53G, which “polymerase ribozyme fitness (log ratio)” value is on record?
**A.** Its value is -0.405.

**Q.** For U9A C62G C94U, which “polymerase ribozyme fitness (log ratio)” value is on record?
**A.** Its value is -0.686.

**Q.** Which “polymerase ribozyme fitness (log ratio)” value does the source give for C4U G10U here?
**A.** The value was -0.515.

**Q.** Which “polymerase ribozyme fitness (log ratio)” value does the source give for C12A U59C here?
**A.** The value was -0.85.

**Q.** With G63U U67A as the variant, how does the “polymerase ribozyme fitness (log ratio)” value read?
**A.** Its value is -6.27.

**Q.** With G61A C123A as the variant, how does the “polymerase ribozyme fitness (log ratio)” value read?
**A.** The value was 0.936.

**Q.** Which “polymerase ribozyme fitness (log ratio)” value does the source give for U92C U112C here?
**A.** Its value is 0.33.

**Q.** Which “polymerase ribozyme fitness (log ratio)” value does the source give for A43U G44C G45A A83C G110A here?
**A.** Its value is -6.81.

**Q.** Which “polymerase ribozyme fitness (log ratio)” value does the source give for G35U U78A here?
**A.** The value was -5.42.

**Q.** Which “polymerase ribozyme fitness (log ratio)” value does the source give for G52C U78C G117U here?
**A.** Its value is -2.77.

**Q.** For U126A G128C, which “polymerase ribozyme fitness (log ratio)” value is on record?
**A.** Its value is -2.86.

**Q.** Which “polymerase ribozyme fitness (log ratio)” value does the source give for C49U G77U here?
**A.** Its value is 0.0294.

**Q.** For A6G C72U G93A, which “polymerase ribozyme fitness (log ratio)” value is on record?
**A.** The value was -0.751.

**Q.** With G57A G71U C124A G135A as the variant, how does the “polymerase ribozyme fitness (log ratio)” value read?
**A.** The value was 0.736.

**Q.** Which “polymerase ribozyme fitness (log ratio)” value does the source give for A43G U59A C99U here?
**A.** Its value is -6.09.

**Q.** Which “polymerase ribozyme fitness (log ratio)” value does the source give for G10A A18U A118U here?
**A.** Its value is -1.34.

**Q.** Which “polymerase ribozyme fitness (log ratio)” value does the source give for A6U A121G here?
**A.** Its value is 2.04.

**Q.** With U21A A43U as the variant, how does the “polymerase ribozyme fitness (log ratio)” value read?
**A.** Its value is -1.83.

**Q.** Which “polymerase ribozyme fitness (log ratio)” value does the source give for C11G G36A C70A here?
**A.** The value was -1.16.

**Q.** With C22G A46G C82A A121G G135U as the variant, how does the “polymerase ribozyme fitness (log ratio)” value read?
**A.** Its value is -2.94.

**Q.** With A43G C53G as the variant, how does the “polymerase ribozyme fitness (log ratio)” value read?
**A.** The value was -2.54.

**Q.** Which “polymerase ribozyme fitness (log ratio)” value does the source give for U81A G110U here?
**A.** Its value is -2.6.

**Q.** With A26U C64A C115U as the variant, how does the “polymerase ribozyme fitness (log ratio)” value read?
**A.** Its value is -6.23.

**Q.** Which “polymerase ribozyme fitness (log ratio)” value does the source give for G61U C82U here?
**A.** Its value is -0.605.

**Q.** With A29G G44U A50U G69U as the variant, how does the “polymerase ribozyme fitness (log ratio)” value read?
**A.** The value was -2.04.

**Q.** For U9C A41C, which “polymerase ribozyme fitness (log ratio)” value is on record?
**A.** Its value is -0.191.

**Q.** Which “polymerase ribozyme fitness (log ratio)” value does the source give for U59A G60A C80U A95C G120U here?
**A.** The value was -2.35.

**Q.** With A37U G48A as the variant, how does the “polymerase ribozyme fitness (log ratio)” value read?
**A.** Its value is -0.338.

**Q.** Which “polymerase ribozyme fitness (log ratio)” value does the source give for A18U A111C here?
**A.** The value was -2.74.

**Q.** Which “polymerase ribozyme fitness (log ratio)” value does the source give for C28A G39U C64U C104A A119G here?
**A.** The value was -5.82.

**Q.** Which “polymerase ribozyme fitness (log ratio)” value does the source give for C4U A41U U112A G113C G122C here?
**A.** The value was -2.19.

**Q.** Which “polymerase ribozyme fitness (log ratio)” value does the source give for G10A G17A C82A here?
**A.** Its value is -3.46.

**Q.** Which “polymerase ribozyme fitness (log ratio)” value does the source give for C49A C79A A119G here?
**A.** Its value is -2.87.

**Q.** With A50G U130G as the variant, how does the “polymerase ribozyme fitness (log ratio)” value read?
**A.** Its value is -0.32.

**Q.** For C22A C123A, which “polymerase ribozyme fitness (log ratio)” value is on record?
**A.** Its value is -4.13.

**Q.** For U9C C72A C76U G77U, which “polymerase ribozyme fitness (log ratio)” value is on record?
**A.** Its value is -2.24.

**Q.** For C72G A108C, which “polymerase ribozyme fitness (log ratio)” value is on record?
**A.** Its value is -5.06.

**Q.** With G10U A37C C85A as the variant, how does the “polymerase ribozyme fitness (log ratio)” value read?
**A.** Its value is -1.32.

**Q.** For C73A C80G, which “polymerase ribozyme fitness (log ratio)” value is on record?
**A.** Its value is -5.69.

**Q.** With A50C C89A as the variant, how does the “polymerase ribozyme fitness (log ratio)” value read?
**A.** Its value is -2.41.

**Q.** With C40G C114U as the variant, how does the “polymerase ribozyme fitness (log ratio)” value read?
**A.** The value was -2.54.

**Q.** For C40U U55C C70U, which “polymerase ribozyme fitness (log ratio)” value is on record?
**A.** The value was -1.45.

**Q.** With A43U A74G as the variant, how does the “polymerase ribozyme fitness (log ratio)” value read?
**A.** Its value is -1.55.

**Q.** For G58C G63C C82A U106G G113U, which “polymerase ribozyme fitness (log ratio)” value is on record?
**A.** Its value is -5.77.

**Q.** Which “polymerase ribozyme fitness (log ratio)” value does the source give for C13A G42U C72G here?
**A.** Its value is -3.63.

**Q.** Which “polymerase ribozyme fitness (log ratio)” value does the source give for G63A G117A here?
**A.** The value was -2.26.

**Q.** With C22G C123A as the variant, how does the “polymerase ribozyme fitness (log ratio)” value read?
**A.** The value was -3.18.

**Q.** Which “polymerase ribozyme fitness (log ratio)” value does the source give for C80U U96C here?
**A.** The value was -0.313.

**Q.** Which “polymerase ribozyme fitness (log ratio)” value does the source give for C53U C123A here?
**A.** The value was 1.2.

**Q.** For C53U G93U, which “polymerase ribozyme fitness (log ratio)” value is on record?
**A.** Its value is -0.832.

**Q.** Which “polymerase ribozyme fitness (log ratio)” value does the source give for C56G G93A here?
**A.** The value was -1.61.

**Q.** Which “polymerase ribozyme fitness (log ratio)” value does the source give for G69U U78C here?
**A.** The value was 0.191.

**Q.** Which “polymerase ribozyme fitness (log ratio)” value does the source give for C49U A95U U130G here?
**A.** The value was -1.71.

**Q.** Which “polymerase ribozyme fitness (log ratio)” value does the source give for G71C G93A C102A here?
**A.** The value was -5.09.

**Q.** Which “polymerase ribozyme fitness (log ratio)” value does the source give for C4U A6C C13U G48U C49G C53U G113C here?
**A.** The value was -3.03.

**Q.** For A41U G69C G127U, which “polymerase ribozyme fitness (log ratio)” value is on record?
**A.** The value was -3.25.
